The term Kd denotes the concentration at which binding is half-saturated. Lower therefore signals tighter binding. As usually defined, the koff is the rate constant with which the complex falls apart. By kon is commonly meant the rate constant with which the complex forms. Read a high kon as faster complex formation.

Results on five molecules are retold here after patent US20190016826A1 (Genentech, published 2019).

Where a chain is given by its changes, count along the chain named.

Assay [1] addresses T1, Full length human HtrA1 (HuHtrA1) (Q23-P480), N-terminal His6 tag (human, UniProt Q92743 23-480). The assay is described as follows: cell-based or functional assay.
Assay [2] addresses T2, Full length murine HtrA1 (MuHtrA1) (P24-P480), N-terminal His6 tag (murine, UniProt Q9R118 24-480). The assay is described as follows: cell-based or functional assay.
The next assay deals with T3, HuHtrA1_PD(V201A) (human, UniProt F1N152 168-386 (bovine entry)).
T3 construct: Alanine mutant of HuHtrA1_PD; also called HuHtrA1 mutant V201A; not shown: thrombin cleavage site
T3 chain: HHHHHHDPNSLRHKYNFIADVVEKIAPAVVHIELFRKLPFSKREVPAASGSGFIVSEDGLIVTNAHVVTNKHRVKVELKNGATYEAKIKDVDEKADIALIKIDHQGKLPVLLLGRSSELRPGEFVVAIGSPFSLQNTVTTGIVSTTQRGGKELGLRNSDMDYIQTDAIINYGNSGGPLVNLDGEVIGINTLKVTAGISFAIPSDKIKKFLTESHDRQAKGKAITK
The assay is described as follows: binding ELISA, plate coated with mutant at 1 ug/ml, 20 min incubation. On the technique in general: In an ELISA, binding on a coated surface is turned into a signal by an enzyme label.

In another assay the target is T4, HuHtrA1_PD(H220A) (human, UniProt F1N152 168-386 (bovine entry)).
T4 construct: Alanine mutant of HuHtrA1_PD; also called HuHtrA1 mutant H220A; not shown: thrombin cleavage site
T4 chain: T3 chain with A47V, H66A
Described as above.

The next assay concerns the target T5, HuHtrA1_PD(T223A) (human, UniProt F1N152 168-386 (bovine entry)).
T5 construct: Alanine mutant of HuHtrA1_PD; also called HuHtrA1 mutant T223A; not shown: thrombin cleavage site
T5 chain: T3 chain with A47V, T69A
Described as above.

For the next assay, the target named is T6, HuHtrA1_PD(K225A) (human, UniProt F1N152 168-386 (bovine entry)).
T6 construct: Alanine mutant of HuHtrA1_PD; also called HuHtrA1 mutant K225A; not shown: thrombin cleavage site
T6 chain: T3 chain with A47V, K71A
Described as above.

The target of another assay is T7, HuHtrA1_PD(K243A) (human, UniProt F1N152 168-386 (bovine entry)).
T7 construct: Alanine mutant of HuHtrA1_PD; also called HuHtrA1 mutant K243A; not shown: thrombin cleavage site
T7 chain: T3 chain with A47V, K89A
The description is as above.

In a further assay the target is T8, HuHtrA1_PD(E247A) (human, UniProt F1N152 168-386 (bovine entry)).
T8 construct: Alanine mutant of HuHtrA1_PD; also called HuHtrA1 mutant E247A; not shown: thrombin cleavage site
T8 chain: T3 chain with A47V, E93A
The assay is described as above.

Assay [3] deals with T1, Full length human HtrA1 (HuHtrA1) …. As to the kind of experiment: cell-based or functional assay. This is another data set of the same source.
The target of assay [4] is Protease domain of human HtrA1 (HuHtrA1_PD), residues D161-K379 (human, UniProt F1N152 168-386 (bovine entry)). As to the kind of experiment: cell-based or functional assay.
Assay [5] deals with T1, Full length human HtrA1 (HuHtrA1) …. The assay is described as follows: SPR (BIAcore T100), single-cycle kinetics, biotinylated human HtrA1 captured on streptavidin, Fab in solution. An excerpt: (§1) To determine the binding affinity of HtrA1 antibodies by single cycle kinetics, Surface Plasmon Resonance (SRP) measurement with a BIAcore™ T100 instrument was used. Briefly, a series S sensor chip CM5 was activated with EDC and NHS reagents according to the supplier's instructions, and streptavidin (Pierce) was coupled to achieve approximately 2000 response units (RU), followed by blocking un-reacted groups with 1M ethanolamine.
(§2) For kinetics measurements, biotinylated human or murine HtrA1 was first injected at 10 ul/min flow rate to capture approximately 100 RU at 3 different flow cells (FC), except for FC1 (reference), and then 5-fold serial dilutions of anti-HtrA1 Fab in HBS-P buffer (0.01M HEPES pH 7.4, 0.15M NaCl, 0.005% surfactant P20) from low (0.48 nM) to high (300 nM) [5 points] were injected (flow rate: 30 μl/min) one after the other in the same cycle with no regeneration between injections. The sensorgram was recorded and subject to reference and buffer subtraction before evaluation by BIAcore™ T100 Evaluation Software (version 2.0). Association rates (km) and dissociation rates (koff) were calculated using a simple one-to-one Langmuir binding model. The equilibrium dissociation constant (Kd) was calculated as the ratio koff/kₒₙ.
(SPR reads the build-up and loss of mass on a sensor chip optically.)

Assay [6] addresses T2, Full length murine HtrA1 (MuHtrA1) …. The assay is described as follows: SPR (BIAcore T100), single-cycle kinetics, biotinylated murine HtrA1 captured on streptavidin, Fab in solution.
Description: as §1, §2

Assay [7] deals with T1, Full length human HtrA1 (HuHtrA1) …. The assay is described as follows: phage competition ELISA: Fab-phage pre-incubated with serially diluted soluble HuHtrA1 (x axis), unbound phage captured on HuHtrA1-coated plate. On the procedure:
(§3) MAXISORP™ microtiter plates were coated with HuHtrA1 at 2 μg/ml in PBS for 2 hr at RT and then blocked with PBST buffer for another hour at RT. Purified phage from culture supernatants were incubated with serially diluted HuHtrA1 or MuHtrA1 in PBST buffer in a tissue-culture microtiter plate for an hour, after which 80 μl of the mixture was transferred to the HuHtrA1-coated wells for 15 minutes to capture unbound phage. The plate was washed with PBT buffer, and HRP-conjugated anti-M13 (Amersham Pharmacia Biotech) was added (1:5000 in PBST buffer) for one hour. The plate was washed with PBT buffer and developed by adding tetramethylbenzidine substrate (Kirkegaard and Perry Laboratories, Gaithersburg, Md.). The absorbance at 450 nm was plotted as a function of HuHtrA1 or MuHtrA1 concentration in solution to determine phage IC₅₀.

Assay [8] addresses T2, Full length murine HtrA1 (MuHtrA1) …. As to the kind of experiment: phage competition ELISA: Fab-phage pre-incubated with serially diluted soluble MuHtrA1 (x axis), unbound phage captured on HuHtrA1-coated plate. As for the experimental part: as §3

T1 sequence (Q92743 other isoform, or with tags, fused parts or gaps): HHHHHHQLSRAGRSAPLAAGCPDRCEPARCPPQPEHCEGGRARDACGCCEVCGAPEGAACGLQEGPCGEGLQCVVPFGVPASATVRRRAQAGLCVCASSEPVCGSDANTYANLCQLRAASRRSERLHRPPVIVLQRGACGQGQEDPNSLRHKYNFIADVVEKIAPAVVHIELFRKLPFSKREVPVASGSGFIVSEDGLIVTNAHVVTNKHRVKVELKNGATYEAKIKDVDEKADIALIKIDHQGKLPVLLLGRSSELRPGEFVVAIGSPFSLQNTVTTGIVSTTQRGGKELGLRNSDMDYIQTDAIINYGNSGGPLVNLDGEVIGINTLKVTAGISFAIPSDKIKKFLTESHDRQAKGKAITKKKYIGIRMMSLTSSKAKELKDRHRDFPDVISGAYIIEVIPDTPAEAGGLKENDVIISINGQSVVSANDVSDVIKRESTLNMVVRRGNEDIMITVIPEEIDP
T2 sequence (Q9R118 other isoform, or with tags, fused parts or gaps): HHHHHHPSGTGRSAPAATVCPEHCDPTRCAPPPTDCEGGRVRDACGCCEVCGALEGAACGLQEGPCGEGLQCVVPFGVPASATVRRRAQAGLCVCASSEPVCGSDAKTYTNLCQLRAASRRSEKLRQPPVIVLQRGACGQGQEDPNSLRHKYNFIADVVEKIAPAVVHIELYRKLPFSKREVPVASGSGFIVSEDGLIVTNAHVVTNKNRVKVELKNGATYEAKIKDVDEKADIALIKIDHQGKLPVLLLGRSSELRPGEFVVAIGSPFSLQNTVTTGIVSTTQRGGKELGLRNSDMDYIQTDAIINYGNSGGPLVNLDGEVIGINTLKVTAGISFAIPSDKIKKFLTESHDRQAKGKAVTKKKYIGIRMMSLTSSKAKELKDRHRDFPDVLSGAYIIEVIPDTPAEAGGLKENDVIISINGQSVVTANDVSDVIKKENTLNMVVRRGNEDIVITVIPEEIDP
Protease domain of human HtrA1 (HuHtrA1_PD), residues D161-K379, sequence (F1N152 other isoform, or with tags, fused parts or gaps): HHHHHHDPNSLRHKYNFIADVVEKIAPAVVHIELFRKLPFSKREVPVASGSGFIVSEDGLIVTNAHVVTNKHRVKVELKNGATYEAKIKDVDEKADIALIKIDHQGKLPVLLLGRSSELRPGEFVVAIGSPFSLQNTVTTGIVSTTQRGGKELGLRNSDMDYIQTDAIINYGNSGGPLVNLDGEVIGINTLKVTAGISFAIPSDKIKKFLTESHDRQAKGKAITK

B1: IgG94 (anti-HtrA1 antibody YW505.94, IgG format) (antibody, V domains shown)
VH: EVQLVESGGGLVQPGGSLRLSCAASGFNISGYYIHWVRQAPGKGLEWVGWIDPYGGDTNYADSVKGRFTISADTSKNTAYLQMNSLRAEDTAVYYCARGTFLTSWGHYFDYWGQGT
VL: DIQMTQSPSSLSASVGDRVTITCRASQDVSTAVAWYQQKPGKAPKLLIYSASFLYSGVPSRFSGSGSGTDFTLTISSLQPEDFATYYCQQSYTTPPTFGQGTKVEIKR
notes: The VH as printed ends at WGQGT; also called antibody 94; Ab94
Consider B1, for which the “IC50, inhibition of BODIPY FL casein hydrolysis” value in [1] was found to be 8.3 nM; in assay [2] it was 5.4 nM. Also, the “IC50, inhibition of H2-Opt peptide hydrolysis (FRET assay)” value in assay [1] is 1.8 nM. The “fold increase in inhibitory potency of IgG94 vs. Fab94” value in [1] is roughly 16 fold. The “fold reduction in binding (alanine mutant)” value with HuHtrA1_PD(V201A), with HuHtrA1_PD(H220A), in the assay with HuHtrA1_PD(T223A), with HuHtrA1_PD(K225A), in the assay with HuHtrA1_PD(K243A) and with HuHtrA1_PD(E247A) was no less than 5 fold each time.

B2: YW505.94a.28 IgG (antibody, V domains shown)
VH: B1 VH with N28S
VL: B1 VL with D28S, V29I, S30N, A32Y, V33L, Y92D, T93D
For the molecule B2, the “IC50, inhibition of H2-Opt hydrolysis (FRET assay, 1.0 nM HuHtrA1)” value in assay [3] is 0.335 nM. The “IC50, inhibition of H2-Opt hydrolysis (FRET assay, 1.5 nM HuHtrA1_PD)” value in [4] amounted to 0.229 nM.

B3: YW505.94a Fab (Fab, V domains shown)
VH: B1 VH with N28S
VL: B1 VL
notes: Tested as Fab
In assay [5], B3 registered a Kd of 55 nM, a koff of 0.0448 s⁻¹ and a kon of 813000 M⁻¹ s⁻¹. In assay [6], this molecule gave a Kd of 58 nM, a koff of 0.0856 s⁻¹ and a kon of 1.48e+06 M⁻¹ s⁻¹. The “IC50 (read off the curve)” value in assay [7] is roughly 6 nM.

B4: YW505.94a.54 Fab (Fab, V domains shown)
VH: B1 VH with N28S
VL: B1 VL with D28V, S30G, T31N, A32Y, V33L, Y92D, T93D, T94H
In the case of B4, the Kd in assay [5] amounted to 2.6 nM; in [6] it was 1.6 nM. In addition, the koff amounted to 0.00784 s⁻¹ in [5] and 0.00455 s⁻¹ in [6]. For the same molecule, the values for the kon in assay [5] and in assay [6] were 2.97e+06 M⁻¹ s⁻¹ and 2.82e+06 M⁻¹ s⁻¹, respectively. For the same molecule, the “IC50 (read off the curve)” value was roughly 0.5 nM in [7] and roughly 2 nM in [8].

B5: YW505.94a.28 Fab (Fab, V domains shown)
VH: B1 VH with N28S
VL: B1 VL with D28S, V29I, S30N, A32Y, V33L, Y92D, T93D
Turning to B5, the “IC50, inhibition of H2-Opt hydrolysis (FRET assay, 1.0 nM HuHtrA1)” value in [3] amounted to 1.95 nM. Moreover, the “IC50, inhibition of H2-Opt hydrolysis (FRET assay, 1.5 nM HuHtrA1_PD)” value in assay [4] turned out to be 2.03 nM. In [5], this molecule returned a Kd of 3.4 nM, a koff of 0.00574 s⁻¹ and a kon of 1.69e+06 M⁻¹ s⁻¹. For the same molecule, in [6], the dissociation constant (Kd) stood at 4.6 nM, the koff worked out at 0.0093 s⁻¹ and the on-rate (kon) is 2.02e+06 M⁻¹ s⁻¹.
